Results taken from patent publication US20030103986A1 (ZymoGenetics, published 2003).

How the values were obtained:
[1] = molecular target: T1, ZTNF4 (Homo sapiens (Human), UniProt Q9Y275 134-285, limits assumed, radioiodinated with 125I (Iodobeads) in the binding assays; unlabeled ZTNF4 used to determine nonspecific binding); test: solution binding: 0.05 nM TACI-Fc with 0.4 pM to 1.5 nM 125I-ZTNF4, Pansorbin precipitation
T1 construct: also called BAFF
Method: At a concentration of 0.05 nM, each TACI-Fc construct was incubated with 0.4 pM to 1.5 nM ¹²⁵I-ZTNF4 for 30 minutes at room temperature in a total volume of 0.25 ml/tube. A Pansorbin (Staph A) suspension was added to each tube, and after 15 minutes, the samples were centrifuged, washed twice, and the pellets counted. Nonspecific binding was determined by the addition of 130 nM unlabeled ZTNF4 to the ¹²⁵I-ZTNF4/TACI-Fc mix. Specific binding was calculated by subtracting the cpm bound in the presence of unlabeled ZTNF4 from the total cpm bound at each concentration of ¹²⁵I-ZTNF4. Each determination was performed in triplicate. Binding constants were calculated using GraphPad Prism software (MacIntosh v. 3.0).

[2] = molecular target: T1, ZTNF4; test: competitive binding: TACI-Fc against plate-coated TACI-N for 125I-ZTNF4
Method: (§1) An N-terminal fragment of the TACI receptor, designated as “TACI-N,” was added to 96-well plates (100 μl at 0.1 μg/ml), and incubated overnight at 4° C. The plates were washed, blocked with Superblock (Pierce), and washed again. […] After incubation, the plates were washed and counted. Each determination was performed in triplicate.

[3] = molecular target: T1, ZTNF4; test: competitive binding: TACI-Fc against plate-coated TACI-N for 125I-ZTNF4 (20 ng/ml); average of three experiments
Method: as §1

B1: TACI (d1-29)-Fc5 (Fc fusion)
chain: AMRSCPEEQYWDPLLGTCMSCKTICNHQSQRTCAAFCRSLSCRKEQGKFYDHLLRDCISCASICGQHPKQCAYFCENKLRSPVNLPPELRRQRSGEVENNSDNSGRYQGLEHRGSEASPALPGLKEPKSSDKTHTCPPCPAPEAEGAPSVFLFPPKPKDTLMISRTPEVTCVVVDVSHEDPEVKFNWYVDGVEVHNAKTKPREEQYNSTYRVVSVLTVLHQDWLNGKEYKCKVSNKALPSSIEKTISKAKGQPREPQVYTLPPSRDELTKNQVSLTCLVKGFYPSDIAVEWESNGQPENNYKTTPPVLDSDGSFFLYSKLTVDKSRWQQGNVFSCSVMHEALHNHYTQKSLSLSPGK
notes: Made in CHO DG44 cells
In the case of B1, the Bmax [1] is reported as 0.023 nM, the Kd [1] is reported as 0.134 nM and the “concentration giving complete inhibition” value [2] is reported as about 100 ng/mL. It also gave an IC50 [3] of 2.07 nM.

B2: TACI (d1-29, d107-154)-Fc5 (Fc fusion)
chain: AMRSCPEEQYWDPLLGTCMSCKTICNHQSQRTCAAFCRSLSCRKEQGKFYDHLLRDCISCASICGQHPKQCAYFCENEPKSSDKTHTCPPCPAPEAEGAPSVFLFPPKPKDTLMISRTPEVTCVVVDVSHEDPEVKFNWYVDGVEVHNAKTKPREEQYNSTYRVVSVLTVLHQDWLNGKEYKCKVSNKALPSSIEKTISKAKGQPREPQVYTLPPSRDELTKNQVSLTCLVKGFYPSDIAVEWESNGQPENNYKTTPPVLDSDGSFFLYSKLTVDKSRWQQGNVFSCSVMHEALHNHYTQKSLSLSPGK
With B2 the Bmax [1] was 0.01 nM, the Kd [1] was 0.121 nM and the “concentration giving complete inhibition” value [2] was about 100 ng/mL. For the same binder, the IC50 [3] was 4.95 nM.

B3: TACI (d1-29, d111-154)-Fc5 (Fc fusion)
chain: AMRSCPEEQYWDPLLGTCMSCKTICNHQSQRTCAAFCRSLSCRKEQGKFYDHLLRDCISCASICGQHPKQCAYFCENKLRSEPKSSDKTHTCPPCPAPEAEGAPSVFLFPPKPKDTLMISRTPEVTCVVVDVSHEDPEVKFNWYVDGVEVHNAKTKPREEQYNSTYRVVSVLTVLHQDWLNGKEYKCKVSNKALPSSIEKTISKAKGQPREPQVYTLPPSRDELTKNQVSLTCLVKGFYPSDIAVEWESNGQPENNYKTTPPVLDSDGSFFLYSKLTVDKSRWQQGNVFSCSVMHEALHNHYTQKSLSLSPGK
In the case of B3, the Bmax [1] is reported as 0.018 nM, the Kd [1] is reported as 0.115 nM and the “concentration giving complete inhibition” value [2] is reported as about 100 ng/mL. For the same binder, the IC50 [3] was 2.31 nM.

B4: TACI (d1-29, d120-154)-Fc5 (Fc fusion)
chain: AMRSCPEEQYWDPLLGTCMSCKTICNHQSQRTCAAFCRSLSCRKEQGKFYDHLLRDCISCASICGQHPKQCAYFCENKLRSPVNLPPELREPKSSDKTHTCPPCPAPEAEGAPSVFLFPPKPKDTLMISRTPEVTCVVVDVSHEDPEVKFNWYVDGVEVHNAKTKPREEQYNSTYRVVSVLTVLHQDWLNGKEYKCKVSNKALPSSIEKTISKAKGQPREPQVYTLPPSRDELTKNQVSLTCLVKGFYPSDIAVEWESNGQPENNYKTTPPVLDSDGSFFLYSKLTVDKSRWQQGNVFSCSVMHEALHNHYTQKSLSLSPGK
B4 was tested, and the Bmax [1] was 0.021 nM, the Kd [1] was 0.092 nM and the “concentration giving complete inhibition” value [2] was about 100 ng/mL. The IC50 [3] was 2.21 nM.
